Publication PMC9695803

Molecular target: Human parvovirus B19 major capsid protein VP2 (human parvovirus B19)

**Q.** Which results are given for “Human parvovirus B19 minor capsid protein VP1 (from UniProt Q9PZT0 1-781) (natural protein)”?
**A.** proportion of VP1 in the VP1/VP2 VLP: 5.11%; proportion of VP1 in the VP1h/VP2 VLP: 25.4%
